Measurements published in patent US12415992B2, “Dioxygenase mutants and use thereof in synthesizing (2S,3R)-3-hydroxypipecolic acid” (Jiangnan University, priority 2023, dated 2025).
Positions count from the first letter of the chain named. Numbers in names are those of the source.

Legend:
[1] = biological target: T1, Streptomyces sp. strain TH1 L-proline-3-hydroxylase (cis-P3H), wild type (WT), SEQ ID NO. 1 (Streptomyces sp., UniProt P96010); experiment: Kinetic parameters of wild-type L-proline-3-hydroxylase (Michaelis-Menten fit); format: biochemical; details: WT pure enzyme; L-pipecolic acid 0.30 to 25 mM, 2-OG 0.30 to 40 mM; pH 6.5, 17° C.; three measurements
T1 sequence (P96010 1-290): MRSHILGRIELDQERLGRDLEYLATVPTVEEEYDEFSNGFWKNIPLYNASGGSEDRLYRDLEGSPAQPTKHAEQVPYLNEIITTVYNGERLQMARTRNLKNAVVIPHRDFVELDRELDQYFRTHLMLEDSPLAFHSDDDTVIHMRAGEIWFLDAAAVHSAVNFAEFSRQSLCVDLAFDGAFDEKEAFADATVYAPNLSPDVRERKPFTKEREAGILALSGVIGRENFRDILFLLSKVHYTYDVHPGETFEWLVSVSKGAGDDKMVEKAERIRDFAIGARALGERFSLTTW
Protocol: […]
(§1) The reaction was terminated by boiling, and the sample after the termination of reaction was analyzed by high-performance liquid chromatography (HPLC). […]
(§2) Kinetic parameters (Km and Vmax) were determined using a reaction mixture with a final volume of 250 μL. […]

[2] = biological target: T2, Streptomyces sp. strain TH1 L-proline-3-hydroxylase (cis-P3H, SEQ ID NO. 1) mutant R97M (Streptomyces sp., UniProt P96010, R97M); experiment: Kinetic parameters of L-proline-3-hydroxylase mutant R97M (Michaelis-Menten fit); format: biochemical
T2 sequence (P96010 1-290 R97M): T1 sequence (P96010 1-290) with R97M
Protocol: […]
as §1, §2

[3] = substrate: O=C(O)CCC(=O)C(=O)O; experiment: purified protein, by the assay type; details: L-pipecolic acid 0.30 to 25 mM, 2-OG 0.30 to 40 mM, pH 6.5, 17° C., three measurements
[4] = substrate: O=C(O)[C@@H]1CCCCN1; experiment: Kinetic parameters of L-proline-3-hydroxylase mutant R97M (Michaelis-Menten fit); format: biochemical, Streptomyces sp. strain TH1; details: other: R97M pure enzyme, L-pipecolic acid 0.30 to 25 mM, 2-OG 0.30 to 40 mM, pH 6.5, 17° C., three measurements
Source text: (§3) The present disclosure further provides a method for constructing the L-proline-3-hydroxylase mutant above, the method includes the following steps: • (1) according to sequence information of the L-proline-3-hydroxylase from Streptomyces sp. strain TH1 disclosed in the NCBI database, performing codon optimization based on codon preference rules of Escherichia coli to obtain an optimized gene of L-proline-3-hydroxylase; connecting the optimized gene of L-proline-3-hydroxylase into an expression vector pET28a to construct an L-proline-3-hydroxylase expression vector; • (2) using genes (involved in site-directed saturation mutagenesis) synthesized by GENCEFE Biotech to prepare an expression vector containing the L-proline-3-hydroxylase mutant; • (3) transforming the above vectors into BL21 engineering bacteria by chemical transformation to express each enzyme protein; culturing the strain in a test tube at 37° C. shaker overnight, transferring the same to an LB liquid culture medium containing 50 mg·L^−1 kanamycin at a 2% inoculation rate, culturing at 37° C. for 2-2.5 hours, and then adding IPTG with a concentration of 0.10 mM to adjust a temperature to 17° C. and culturing for 16 hours; • (4) centrifuging at 8000 r·min^−1 for 5 minutes and collecting bacterial pellets, disrupting cells through an ultrasonic disruption method, centrifuging in a refrigerated centrifuge at 12000 r·min^−1 for 30 minutes to collect supernatant, directly using the supernatant for crude enzyme reaction to explore changes in molar yield under crude enzyme conditions; or purifying the supernatant with a nickel column, and enzymatic properties such as enzyme activity and kinetic parameters of the pure L-proline-3-hydroxylase can be determined. Specifically, the enzyme activity is detected using an Fmoc-Cl pre-column derivatization method, and analyzed by high-performance liquid chromatography (HPLC). The kinetic parameters (Km and Vmax) are measured in a standard enzyme activity assay system, with three separate measurements. Data are fitted to a Michaelis-Menten model using GraphPad Prism, and a protein concentration is kept at 0.50 mg·mL-1 during the measurements.
(§4) Specifically, the reaction under crude enzyme conditions was performed for 12 hours, the reaction under pure enzyme conditions was performed for 15 minutes, and a final protein concentration for the reaction under pure enzyme conditions was 0.5 mg·mL^−1.
as §1, §2

[5] = substrate: O=C(O)[C@@H]1CCCCN1; experiment: Kinetic parameters of wild-type L-proline-3-hydroxylase (Michaelis-Menten fit); format: biochemical, Streptomyces sp. strain TH1; details: other: WT pure enzyme, L-pipecolic acid 0.30 to 25 mM, 2-OG 0.30 to 40 mM, pH 6.5, 17° C., three measurements
Source text: as §3, §4, §1, §2

`O=C(O)[C@@H]1CCCCN1` [L-Pip, L-pipecolic acid] was tested, and the kcat/Km [1] was 19 M⁻¹ s⁻¹, the kcat/Km ([2]; R97M pure enzyme, L-pipecolic acid 0.30 to 25 mM, 2-OG 0.30 to 40 mM, pH 6.5, 17° C., three measurements) was 34.8 M⁻¹ s⁻¹ and the “catalytic efficiency kcat/Km of R97M relative to WT” value ([2]; ratio R97M / WT) was 1.83 times.

B1: Streptomyces sp. strain TH1 L-proline-3-hydroxylase (cis-P3H, SEQ ID NO. 1) mutant R97M (Streptomyces sp.; R97M) (protein)
chain: T1 sequence (P96010 1-290) with R97M
Molecule B1 has a Km ([3]; other: R97M pure enzyme) of 1.46 ± 0.01 mM, a Vmax ([3]; other: R97M pure enzyme) of 139 µM/min and a kcat ([3]; other: R97M pure enzyme) of 0.151 s⁻¹. The kcat/Km ([3]; other: R97M pure enzyme) was 104 M⁻¹ s⁻¹, the Km [4] was 6.83 ± 0.32 mM and the Vmax [4] was 212 µM/min. The kcat [4] was 0.23 ± 0.00367 s⁻¹ and the kcat/Km [4] was 34.8 ± 1 M⁻¹ s⁻¹.

B2: Streptomyces sp. strain TH1 L-proline-3-hydroxylase (cis-P3H), wild type (WT), SEQ ID NO. 1 (Streptomyces sp.) (protein)
chain: T1 sequence (P96010 1-290)
With B2 the Km ([3]; other: WT pure enzyme) was 0.76 ± 0.02 mM, the Vmax ([3]; other: WT pure enzyme) was 101 µM/min and the kcat ([3]; other: WT pure enzyme) was 0.102 s⁻¹. The kcat/Km ([3]; other: WT pure enzyme) was 134 M⁻¹ s⁻¹, the Km [5] was 10.27 ± 0.40 mM and the Vmax [5] was 201 µM/min. For the same molecule, the kcat [5] was 0.2038 ± 0.002 s⁻¹ and the kcat/Km [5] was 19 ± 0.5 M⁻¹ s⁻¹.
